Source: the supplement of paper PMC9233669
This sample holds only a part of the variants without activity.

How the values were obtained:
[1] = test system: biotinyl-Phe-oxazolone; assay: self-aminoacylation, catalytic enhancement (BFO) (fold over background); higher = more active; k-Seq, kA / k0A0; sequences stand for … in GGGAAUGGAUCCACAUCUACGAAUUC…UUCACUGCAGACUUGACGAAGCUG
Summary of the method: (§1)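 Mutagenized RNA pools (0.43 μM; 21-nt variable region) were treated with 2–1250 μM of each biotinyl-aminoacyl-oxazolone. Conditions were 50 μL HEPES/NaCl/KCl/MgCl2/CaCl2 buffer, 5% acetonitrile, pH 6.9–7.0, room temperature, 90 minutes. Catalytic enhancement, the median kA relative to the uncatalyzed rate, was derived from streptavidin capture, qPCR and Illumina sequencing.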

[2] = test system: biotinyl-Trp-oxazolone; assay: self-aminoacylation, catalytic enhancement (BWO) (fold over background); higher = more active; k-Seq, kA / k0A0; sequences stand for … in GGGAAUGGAUCCACAUCUACGAAUUC…UUCACUGCAGACUUGACGAAGCUG
Summary of the method: as §1

| Sequence | self-aminoacylation [1] | self-aminoacylation [2] |
| --- | --- | --- |
| AAAUUUGCUAAUAGUCGCAAG [Fam3.1 aminoacylation ribozyme variant] | 4 | 2.13 |
| AAGAUUGAUAAUAGUCGCAAG [Fam3.1 aminoacylation ribozyme variant] |  | 2.33 |
| AAGAUUGCUAAUAGUCGUAAG [Fam3.1 aminoacylation ribozyme variant] | 9.9 | 2.41 |
| AAGAUUGCUUAUAGUCGCAAG [Fam3.1 aminoacylation ribozyme variant] | 2.44 | 2.35 |
| AAGUCUACUAAUAGUCGCAAG [Fam3.1 aminoacylation ribozyme variant] | 3.17 | 2.11 |
| AAGUGUGCUAAUAGUCGAAAG [Fam3.1 aminoacylation ribozyme variant] | 11.5 | 4.55 |
| AAGUUUCCUAAUAGUCGCACG [Fam3.1 aminoacylation ribozyme variant] | 2.96 | 2.23 |
| AAGUUUGCUAAUAGCCGCAAG [Fam3.1 aminoacylation ribozyme variant] | 6.96 | 2.2 |
| AAGUUUGCUAAUGGUCGCAAA [Fam3.1 aminoacylation ribozyme variant] | 2.48 | 2.87 |
| AAGUUUGCUAGUAGUCGCACG [Fam3.1 aminoacylation ribozyme variant] | 3.09 | 2.21 |
| AAGUUUUCUAUUAGUCGCAAG [Fam3.1 aminoacylation ribozyme variant] | 2.22 | 2.07 |
| ACUCACUUCAAGCAAUCGGUC [Fam1B.1 aminoacylation ribozyme variant] | 9.3 | 5.36 |
| AUACUUCAAACAAUCGGUCUC [Fam1A.1 aminoacylation ribozyme variant] | 13.5 | 7.89 |
| AUGACCCUGGUCAUCGAGUCA [Fam2.1 aminoacylation ribozyme variant] |  | 2.12 |
| AUUACCAUGGUCAUCGAGGGA [Fam2.1 aminoacylation ribozyme variant] | 2.21 | 2.58 |
| AUUACCCUGGUCAGCGAGUGC [Fam2.1 aminoacylation ribozyme variant] | 8.87 |  |
| AUUACCCUGGUCAUCCAGUAA [Fam2.1 aminoacylation ribozyme variant] |  | 2.35 |
| AUUACCCUGGUCAUGGAGUGG [Fam2.1 aminoacylation ribozyme variant] |  | 2.54 |
| AUUACCGUGGUCAUCGAGCGA [Fam2.1 aminoacylation ribozyme variant] |  | 2.2 |
| AUUCACCUACGUCAUCGGGUU [Fam2.2 aminoacylation ribozyme variant] | 2.52 |  |
| AUUCACCUAGGUAAUCGAGUG [Fam2.2 aminoacylation ribozyme variant] | 2.87 |  |
| AUUCACCUAGGUCACCUGGUG [Fam2.2 aminoacylation ribozyme variant] | 8.5 |  |
| AUUCACCUAGGUCGUCGGGUC [Fam2.2 aminoacylation ribozyme variant] | 5.09 |  |
| AUUCACCUAGGUCUUCGUGUG [Fam2.2 aminoacylation ribozyme variant] | 5.39 |  |

| Sequence | self-aminoacylation [1] | self-aminoacylation [2] |
| --- | --- | --- |
| AUUCACCUAGUUCAUCGGGUA [Fam2.2 aminoacylation ribozyme variant] | 5.42 | 2.37 |
| AUUCGCCUAGGUCAUCGGUUG [Fam2.2 aminoacylation ribozyme variant] | 4.32 |  |
| AUUCUCCUAGGUCAUCGUGUG [Fam2.2 aminoacylation ribozyme variant] | 3.73 |  |
| AUUGACCUAGGUCAUCGGGUC [Fam2.2 aminoacylation ribozyme variant] | 3.83 |  |
| CAACGUCAAACAAUCGGUCUG [Fam1A.1 aminoacylation ribozyme variant] | 3.29 | 2.6 |
| CAACUUCAAACAAUCGGUCAG [Fam1A.1 aminoacylation ribozyme variant] | 19.5 | 11.9 |
| CAACUUCAAACAAUCUGUCUG [Fam1A.1 aminoacylation ribozyme variant] | 4.35 | 2.14 |
| CAACUUCAAACGAUCGGUCUG [Fam1A.1 aminoacylation ribozyme variant] | 2.25 | 2.65 |
| CAACUUCACACAAUCGGUCUG [Fam1A.1 aminoacylation ribozyme variant] | 3.02 |  |
| CAAGACUUCAAGCAAUCGGUC [Fam1B.1 aminoacylation ribozyme variant] | 15.3 | 9.73 |
| CCACACAUCAAUCAAUCGGUC [Fam1B.1 aminoacylation ribozyme variant] | 2.22 |  |
| CCACACCUCAAUCAAUCGGUC [Fam1B.1 aminoacylation ribozyme variant] | 3.88 | 2.88 |
| CCACACUCCAACCAAUCGGUC [Fam1B.1 aminoacylation ribozyme variant] | 3.55 | 2.18 |
| CCACACUUCAACCAAUCGGUU [Fam1B.1 aminoacylation ribozyme variant] | 12.3 | 11.9 |
| CCACACUUCAACCGAUCGGUC [Fam1B.1 aminoacylation ribozyme variant] | 3.75 | 5.96 |
| CCACACUUCAAGCAAUCGAUC [Fam1B.1 aminoacylation ribozyme variant] | 2.02 |  |
| CCACACUUCAAGUAAUCGGUC [Fam1B.1 aminoacylation ribozyme variant] | 16.4 | 9.7 |
| CCACCCUUCAAUCAAUCGGUC [Fam1B.1 aminoacylation ribozyme variant] | 28.6 | 20.9 |
| CCACGCCUCAAGCAAUCGGUC [Fam1B.1 aminoacylation ribozyme variant] | 10.4 | 6.73 |
| CCACUCUUCAAGGAAUCGGUC [Fam1B.1 aminoacylation ribozyme variant] | 3 | 3.24 |
| CCACUGCAAACAAUCGGUCUG [Fam1A.1 aminoacylation ribozyme variant] | 4.13 |  |
| CCACUUCAAAAAAUCGGUCUG [Fam1A.1 aminoacylation ribozyme variant] | 15.2 | 12.1 |
| CCACUUCAAACAUUCGGUCUG [Fam1A.1 aminoacylation ribozyme variant] | 5.58 | 2.73 |
| CCACUUCAAACGAUCGGUCUG [Fam1A.1 aminoacylation ribozyme variant] | 3.03 | 2.62 |

| Sequence | self-aminoacylation [1] | self-aminoacylation [2] |
| --- | --- | --- |
| CCGCACUUCAAGCAAUCGGUA [Fam1B.1 aminoacylation ribozyme variant] |  | 2.16 |
| CGACUGCAAACAAUCGGUCUG [Fam1A.1 aminoacylation ribozyme variant] | 6.2 |  |
| CGACUUCAAACAAUCGAUCUG [Fam1A.1 aminoacylation ribozyme variant] | 3.21 |  |
| CUACUCCAAACAAUCGGUUUG [Fam1A.1 aminoacylation ribozyme variant] | 2.1 |  |
| CUACUGCAAACAAGCGGUCUG [Fam1A.1 aminoacylation ribozyme variant] | 5.58 |  |
| CUACUGCAAACAAUCGGUCCG [Fam1A.1 aminoacylation ribozyme variant] | 6.96 |  |
| CUACUGCAAACAAUCGGUGUG [Fam1A.1 aminoacylation ribozyme variant] | 3.44 |  |
| CUACUUCAAACAAUCGCUCUG [Fam1A.1 aminoacylation ribozyme variant] | 2.58 |  |
| CUACUUCAAACAAUCGGCCCG [Fam1A.1 aminoacylation ribozyme variant] | 3.03 |  |
| CUACUUCAAACAAUCGGCCUU [Fam1A.1 aminoacylation ribozyme variant] | 2.48 |  |
| CUAUUUCAACCAAUCGGUCUG [Fam1A.1 aminoacylation ribozyme variant] | 2.27 |  |
| CUCCAUCAAACAAUCGGUCUG [Fam1A.1 aminoacylation ribozyme variant] | 2.14 |  |
| CUCCUUCAAACACUCGGUCUG [Fam1A.1 aminoacylation ribozyme variant] | 6.18 |  |
| CUUCACCUAGGUCAUCGGGAG [Fam2.2 aminoacylation ribozyme variant] |  | 2.1 |
| GAGUUUGCUAAUAGCCGCAAG [Fam3.1 aminoacylation ribozyme variant] | 4.21 |  |
| GAGUUUGCUAAUAGUCGCACG [Fam3.1 aminoacylation ribozyme variant] | 3 |  |
| GAGUUUGCUAAUCGUCGCAAG [Fam3.1 aminoacylation ribozyme variant] | 2.55 |  |
| GAGUUUGUUAAUAGUCGCAAG [Fam3.1 aminoacylation ribozyme variant] | 2.36 |  |
| GUACAUCAAACAAUCGGUCUG [Fam1A.1 aminoacylation ribozyme variant] | 2 |  |
| GUACCUCAAACAAUCGGUCUG [Fam1A.1 aminoacylation ribozyme variant] | 2.42 |  |
| GUUCACCUAGGUCAUCGGGAG [Fam2.2 aminoacylation ribozyme variant] |  | 2.13 |
| UCGUUUGCUAAUAGUCGCAAG [Fam3.1 aminoacylation ribozyme variant] | 4.06 |  |
